Experimental data published in US20240327522A1 (Genentech, published 2024).

Target: T1, recombinant human αvβ8 protein (PARS-17102) (human)
T1 construct: also called hu.aVb8.17102; not shown: C-terminal acid/basic coils and any purification tags
T1 alpha: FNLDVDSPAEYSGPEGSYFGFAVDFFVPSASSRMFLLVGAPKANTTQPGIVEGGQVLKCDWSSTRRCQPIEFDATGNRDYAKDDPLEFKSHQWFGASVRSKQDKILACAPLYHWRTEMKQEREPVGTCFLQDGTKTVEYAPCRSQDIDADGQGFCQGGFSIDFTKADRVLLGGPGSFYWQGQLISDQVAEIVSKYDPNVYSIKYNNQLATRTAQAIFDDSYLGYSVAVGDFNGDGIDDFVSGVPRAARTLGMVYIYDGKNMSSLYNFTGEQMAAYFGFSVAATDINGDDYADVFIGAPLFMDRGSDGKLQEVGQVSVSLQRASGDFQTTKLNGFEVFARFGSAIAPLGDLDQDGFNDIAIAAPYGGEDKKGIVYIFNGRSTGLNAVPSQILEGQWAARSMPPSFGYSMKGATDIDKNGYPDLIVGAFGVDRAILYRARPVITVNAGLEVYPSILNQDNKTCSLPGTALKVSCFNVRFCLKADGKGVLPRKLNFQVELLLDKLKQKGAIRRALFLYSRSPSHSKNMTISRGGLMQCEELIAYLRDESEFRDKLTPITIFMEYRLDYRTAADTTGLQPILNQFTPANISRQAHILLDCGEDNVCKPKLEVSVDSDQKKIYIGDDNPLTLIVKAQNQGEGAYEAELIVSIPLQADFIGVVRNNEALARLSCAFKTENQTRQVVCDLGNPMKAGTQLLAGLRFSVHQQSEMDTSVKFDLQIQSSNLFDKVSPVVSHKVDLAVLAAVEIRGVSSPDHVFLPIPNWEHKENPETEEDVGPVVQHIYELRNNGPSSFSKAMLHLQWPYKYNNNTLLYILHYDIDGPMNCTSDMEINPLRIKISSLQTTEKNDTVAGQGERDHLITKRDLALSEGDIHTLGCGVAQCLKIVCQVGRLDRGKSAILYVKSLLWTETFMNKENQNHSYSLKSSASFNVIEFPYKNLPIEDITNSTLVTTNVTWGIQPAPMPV
T1 beta: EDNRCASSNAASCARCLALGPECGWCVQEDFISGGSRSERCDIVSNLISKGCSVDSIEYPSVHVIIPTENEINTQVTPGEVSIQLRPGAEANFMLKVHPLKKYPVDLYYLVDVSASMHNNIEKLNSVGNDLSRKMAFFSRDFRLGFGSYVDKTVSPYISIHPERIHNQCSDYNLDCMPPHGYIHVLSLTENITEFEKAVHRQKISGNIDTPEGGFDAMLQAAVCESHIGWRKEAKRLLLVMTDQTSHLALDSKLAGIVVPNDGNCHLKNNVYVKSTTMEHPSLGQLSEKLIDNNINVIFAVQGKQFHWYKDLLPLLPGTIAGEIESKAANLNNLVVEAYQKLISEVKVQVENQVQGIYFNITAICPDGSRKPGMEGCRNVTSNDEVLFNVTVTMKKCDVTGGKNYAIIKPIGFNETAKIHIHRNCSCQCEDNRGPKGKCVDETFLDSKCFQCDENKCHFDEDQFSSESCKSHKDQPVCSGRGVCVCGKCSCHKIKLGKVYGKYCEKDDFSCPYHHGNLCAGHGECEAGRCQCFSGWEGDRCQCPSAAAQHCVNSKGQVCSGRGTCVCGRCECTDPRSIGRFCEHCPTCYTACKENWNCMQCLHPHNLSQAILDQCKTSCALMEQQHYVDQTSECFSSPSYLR
Test: SPR, Biacore T200, Protein A capture, human αvβ8 analyte 0-100 nM, 37 C, 1:1 model (comparison with hC6D4, FIG. 9A)
Method: The antibodies were first captured either on a Biacore™ Protein A biosensor chip (Cytiva Life Sciences) or on an anti-murine Fc chip to achieve approximately 60 response units. Binding measurements were performed using a running buffer composed of 10 mM HEPES (pH 7.4), 150 mM NaCl, 0.5 mM CaCl₂), and 0.005% Surfactant P20 (Cytiva Life Sciences). For comparison between αvβ8-65 and hC6D4, a 5-fold dilution series of human αvβ8 (range, 0-100 nM in running buffer) was injected into the Biacore™ T200. For comparison between αvβ8-65 and hADWA11-2.4, a 5-fold dilution series of human αvβ8 (range, 0-100 nM in running buffer) was injected. For comparison of all three antibodies in the murine Fc format, a 5-fold dilution series of human αvβ8 (range, 0-50 nM in running buffer) was injected. All injections were performed over 180 seconds, with a dissociation time of 1200 seconds, at a flow rate of 100 μL/minute and a temperature of 37° C. Between sample injections, a regeneration reagent (10 mM glycine pH 1.5 for protein A chip; 10 mM glycine pH 1.7 for anti-murine Fc chip) was injected to regenerate the sensor chip (twice, over 30 seconds at 10 μL/minute for each injection). To determine the binding kinetics and affinity constants of the antibodies to human αvβ8 protein, the signal from the reference flow cell (FC1, with only protein A on the surface) was “double referenced” by subtracting the signal observed after injecting the sample over FC1, followed by subtracting the signal observed after injecting only running buffer. The kinetic constants were calculated using nonlinear regression fitting of the data, according to a 1:1 Langmuir binding model, using Biacore™ Evaluation Software (Cytiva Life Sciences).
The values of the kinetic constants kon, koff, and KD for the binding of αvβ8-65, hC6D4 and ADWA11-2.4 to the various species of αvβ8 proteins are summarized in Table 13. A 1:1 Langmuir binding model was used to determine the KD values. The sensograms observed for the bindings of the various αvβ8 proteins to the captured antibody are shown in FIG. 9A, FIG. 9B, and FIG. 10.

Kd: 1.01 nM
koff: 0.000169 s⁻¹
kon: 168000 M⁻¹ s⁻¹
B1: Hu.aVb8-65.H15L2 (aVb8-65.H15L2.hIgG1.LALAPG) (antibody, V domains shown)
VH: EVQLLESGGGLVQPGGSLRLSCAASGIDLSNYAMIWVRQAPGKGLEWVGIISSSDRIWYASWVKGRFTISRDNSKNTLYLQMNSLRAEDTAVYYCSRSVSNSYFDGWNLWGQGTLVTVSS
VL: DIQMTQSPSSVSASVGDRVTITCQASENINSLLAWYQQKPGKAPKLLIYRASTLASGVPSRFSGSGSGTDFTLTISSLQPEDFATYYCQSNYGFTGSGAFFYGFGQGTKVEIKR
notes: Human IgG1 LALAPG; also called PARS-20475-65 (IH) aVb8-65.H15L2.hIgG1.LALAPG; humanized αvβ8-65
